Laboratory results reported in patent US20090074790A1, “Methods for measuring transforming growth factor beta (TGF-beta) receptor signaling activity and uses thereof” (priority 2004, published 2009).

Target: TGFβ type I receptor (TβR-I) on human cells (human) (UniProt P36897)
Assay: cell-based or functional assay

Sequence of TGFβ type I receptor (TβR-I) on human cells (human) (P36897 34-503): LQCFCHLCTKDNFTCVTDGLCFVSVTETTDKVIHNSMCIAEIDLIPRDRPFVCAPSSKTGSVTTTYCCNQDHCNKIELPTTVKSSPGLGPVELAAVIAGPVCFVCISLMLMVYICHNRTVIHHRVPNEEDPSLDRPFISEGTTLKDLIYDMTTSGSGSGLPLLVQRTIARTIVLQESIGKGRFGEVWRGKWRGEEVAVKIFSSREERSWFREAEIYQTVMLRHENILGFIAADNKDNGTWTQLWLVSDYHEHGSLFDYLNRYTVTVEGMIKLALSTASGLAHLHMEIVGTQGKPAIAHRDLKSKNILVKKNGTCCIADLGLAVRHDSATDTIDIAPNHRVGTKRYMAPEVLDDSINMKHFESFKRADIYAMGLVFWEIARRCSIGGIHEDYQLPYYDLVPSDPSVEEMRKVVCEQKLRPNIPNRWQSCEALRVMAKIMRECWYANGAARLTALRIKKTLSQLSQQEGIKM

## TGFβ (exogenous, added to human keratinocyte cultures) (ligand)
  growth inhibition of human keratinocytes: 5 pM
